Assay results as given in patent US20260242478A1 (published 2026).
Where no end group is shown, it is not given here.

How the values were obtained:
[1] = biological target: Anti-CD28 Fab (SEQ ID NOs: 696, 697); assay: phage ELISA on captured anti-CD28 Fab; competitor CD28 antigen pre-incubated in the wells;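 note: clonal phage supernatants added to wells preloaded with CD28 antigen in blocking buffer, control wells buffer only, bound phage read via HRP-linked anti-M13 antibody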
Target sequence in this assay (VH, as listed by the source, chain 1 of 2): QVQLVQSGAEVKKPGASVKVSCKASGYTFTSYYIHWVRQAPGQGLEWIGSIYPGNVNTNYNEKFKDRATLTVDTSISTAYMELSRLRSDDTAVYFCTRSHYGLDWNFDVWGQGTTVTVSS
Target sequence in this assay (VL, as listed by the source, chain 2 of 2): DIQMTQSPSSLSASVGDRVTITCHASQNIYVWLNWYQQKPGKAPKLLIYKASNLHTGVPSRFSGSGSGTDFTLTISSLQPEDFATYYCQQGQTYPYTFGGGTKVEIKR
Procedure: (§1) After panning, phage infected bacteria were plated out and colonies picked into 96 well blocks. Clonal phage was then amplified and separated from bacterial cells via centrifugation.
(§2) Clonal phage were harvested as crude supematants and screened via standard ELISAs. […] Prior to the addition of clonal phage, wells were incubated with blocking buffer and CD28 antigen or blocking buffer alone. Without washing or aspirating, clonal phage supematants were then added to the wells and incubated for a short time. Wells were then washed followed by detection of bound phage using a horse radish conjugated anti-M13 antibody. Clonal phage of interest were then sent for sequence analysis.

[2] = biological target: Anti-CD28 Fab (SEQ ID NOs: 696, 697); assay: phage ELISA; clonal phage on biotinylated anti-CD28 Fab captured on neutravidin, anti-M13 HRP detection
Target sequence in this assay (VH, as listed by the source, chain 1 of 2): as the sequence (VH, as listed by the source, chain 1 of 2) above
Target sequence in this assay (VL, as listed by the source, chain 2 of 2): as the sequence (VL, as listed by the source, chain 2 of 2) above
Procedure: as §1, §2

[3] = biological target: T1, Anti-CD28 Fab (SEQ ID NOs: 696, 697); assay: phage binding ELISA on captured anti-CD28 Fab, wells pre-incubated with CD28 antigen as competitor; anti-M13 HRP detection;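 for Anti-CD28 Fab signal in the presence of CD28: crude clonal phage supernatants added to wells preloaded with CD28 antigen, bound phage read by HRP-conjugated anti-M13 antibody, control wells got blocking buffer alone without CD28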
T1 construct: Biotinylated and captured on neutravidin coated plates in the phage ELISA
T1 sequence (VH, as listed by the source, chain 1 of 2): as the sequence (VH, as listed by the source, chain 1 of 2) above
T1 sequence (VL, as listed by the source, chain 2 of 2): as the sequence (VL, as listed by the source, chain 2 of 2) above
Procedure: as §1, §2

[4] = biological target: T1, Anti-CD28 Fab (SEQ ID NOs: 696, 697); assay: phage binding ELISA; clonal phage supernatant on biotinylated anti-CD28 Fab captured on neutravidin plate; anti-M13 HRP detection
Procedure: as §1, §2

[5] = biological target: T2, Anti-CD28 Fab (SEQ ID NOs: 696, 697); assay: phage binding ELISA; Fab on plate pre-incubated with CD28 antigen as competitor, anti-M13 HRP detection;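 note: crude clonal phage supernatants screened by ELISA, with comparison wells pre-incubated in blocking buffer only, lacking CD28 antigen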
T2 construct: Biotinylated and captured on neutravidin coated plates in the phage ELISA
T2 sequence (VH, as listed by the source, chain 1 of 2): as the sequence (VH, as listed by the source, chain 1 of 2) above
T2 sequence (VL, as listed by the source, chain 2 of 2): as the sequence (VL, as listed by the source, chain 2 of 2) above
Procedure: as §1, §2

[6] = biological target: T2, Anti-CD28 Fab (SEQ ID NOs: 696, 697); assay: phage binding ELISA; biotinylated Fab on neutravidin plate, clonal phage supernatant, anti-M13 HRP detection;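 note: phage from clones picked after panning, added to wells pre-incubated with blocking buffer with or without CD28 antigen, then briefly incubated and washed before detection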
[7] = biological target: T3, Anti-CD28 Fab (SEQ ID NOs: 696, 697); assay: phage binding ELISA on captured anti-CD28 Fab, wells pre-incubated with CD28 antigen as competitor;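 note: crude clonal phage supernatants added to wells preloaded with CD28 antigen, bound phage read by HRP-conjugated anti-M13 antibody, control wells got blocking buffer alone without CD28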
T3 construct: In the phage ELISA the Fab was biotinylated and captured on neutravidin coated plates
T3 sequence (VH, as listed by the source, chain 1 of 2): as the sequence (VH, as listed by the source, chain 1 of 2) above
T3 sequence (VL, as listed by the source, chain 2 of 2): as the sequence (VL, as listed by the source, chain 2 of 2) above
Procedure: as §1, §2

[8] = biological target: T3, Anti-CD28 Fab (SEQ ID NOs: 696, 697); assay: phage binding ELISA, clonal phage on biotinylated anti-CD28 Fab captured on neutravidin plates, anti-M13 HRP detection
Procedure: as §1, §2

YCDGHTSEYITKCL [Phage-823 (Peptide-87 library peptide, SEQ ID NO: 1139)]
Phage binding ELISA, Anti-CD28 Fab signal in the presence of CD28 [1]: 0.07 | Phage binding ELISA, Anti-CD28 Fab signal [2]: 1.79

YCDGHAPMYMAKCL [Phage-826 (Peptide-87 library peptide, SEQ ID NO: 1142)]
Phage binding ELISA, Anti-CD28 Fab signal in the presence of CD28 [1]: 0.08 | Phage binding ELISA, Anti-CD28 Fab signal [2]: 1.79

YCVGHLQEYMEKCL [Phage-839 (Peptide-87 library sequence, SEQ ID NO: 1155)]
Phage binding ELISA, Anti-CD28 Fab signal in the presence of CD28 [3]: 0.06 | Phage binding ELISA, Anti-CD28 Fab signal [4]: 1.76

YCDGHLSEYMFKCL [Phage-821 (Peptide-87 library peptide, SEQ ID NO: 1137)]
Phage binding ELISA, Anti-CD28 Fab signal in the presence of CD28 [1]: 0.1 | Phage binding ELISA, Anti-CD28 Fab signal [2]: 1.79

YCDGHLAEYMVKCL [Phage-825 (Peptide-87 library peptide, SEQ ID NO: 1141)]
Phage binding ELISA, Anti-CD28 Fab signal in the presence of CD28 [1]: 0.08 | Phage binding ELISA, Anti-CD28 Fab signal [2]: 1.79

YCAGHVPEYMAKCL [Phage-829 (Peptide-87 library sequence, SEQ ID NO: 1145)]
Phage binding ELISA, Anti-CD28 Fab signal in the presence of CD28 [3]: 0.07 | Phage binding ELISA, Anti-CD28 Fab signal [4]: 1.78

YCDGHTREYIDKCL [Phage-818 (Peptide-87 library peptide, SEQ ID NO: 1134)]
Phage binding ELISA, Anti-CD28 Fab signal in the presence of CD28 [1]: 0.08 | Phage binding ELISA, Anti-CD28 Fab signal [2]: 1.8

YCDGHSSEYIAKCL [Phage-833 (Peptide-87 library sequence, SEQ ID NO: 1149)]
Phage binding ELISA, Anti-CD28 Fab signal in the presence of CD28 [3]: 0.07 | Phage binding ELISA, Anti-CD28 Fab signal [4]: 1.77

YCAGHLPQYMNKCL [Phage-815 (Peptide-87 library peptide, SEQ ID NO: 1131)]
Phage binding ELISA, Anti-CD28 Fab signal in the presence of CD28 [1]: 0.06 | Phage binding ELISA, Anti-CD28 Fab signal [2]: 1.81

B1: Phage-812 (peptide)
peptide: YCAGHSSEYIWKCL
modifications: cysteine pairing not given here; also: displayed on phage by fusion to pIII, pIII and linker sequence not given here
notes: Clonal phage of the Peptide-87 library; not shown: fused to the pIII filament protein of the bacteriophage
Anti-CD28 Fab signal in the presence of CD28 [5]: 0.06 | Anti-CD28 Fab (SEQ ID NOs: 696, 697) signal [6]: 1.82

YCEGHLPAYMQKCL [Phage-827 (Peptide-87 library sequence, SEQ ID NO: 1143)]
Phage binding ELISA, Anti-CD28 Fab signal in the presence of CD28 [3]: 0.07 | Phage binding ELISA, Anti-CD28 Fab signal [4]: 1.78

YCVGHAPEFMAKCL [Phage-819 (Peptide-87 library peptide, SEQ ID NO: 1135)]
Phage binding ELISA, Anti-CD28 Fab signal in the presence of CD28 [1]: 0.1 | Phage binding ELISA, Anti-CD28 Fab signal [2]: 1.8

YCEGHSPEYMRKCL [Phage-835 (Peptide-87 library sequence, SEQ ID NO: 1151)]
Phage binding ELISA, Anti-CD28 Fab signal in the presence of CD28 [3]: 0.08 | Phage binding ELISA, Anti-CD28 Fab signal [4]: 1.77

B2: Phage-811 (peptide)
peptide: YCDGHSSMYMAKCL
modifications: cysteine pairing not given here; also: displayed on phage by fusion to pIII, pIII and linker sequence not given here
notes: as for B1
Anti-CD28 Fab signal in the presence of CD28 [5]: 0.06 | Anti-CD28 Fab (SEQ ID NOs: 696, 697) signal [6]: 1.82

B3: Phage-840 (peptide)
peptide: YCDGHSPQYMQKCL
modifications: cysteine pairing not given here; also: displayed on phage by fusion to pIII, pIII and linker sequence not given here
notes: Peptide-87 library clone, tested as clonal phage supernatant
Anti-CD28 Fab signal in the presence of CD28 [7]: 0.07 | Anti-CD28 Fab (SEQ ID NOs: 696, 697) signal [8]: 1.76

B4: Phage-813 (peptide)
peptide: YCEGHSAEFMTKCL
modifications: cysteine pairing not given here; also: displayed on phage by fusion to pIII, pIII and linker sequence not given here
notes: as for B1
Anti-CD28 Fab signal in the presence of CD28 [5]: 0.06 | Anti-CD28 Fab (SEQ ID NOs: 696, 697) signal [6]: 1.81

YCQGHSAEYMMKCL [Phage-814 (Peptide-87 library peptide, SEQ ID NO: 1130)]
Phage binding ELISA, Anti-CD28 Fab signal in the presence of CD28 [1]: 0.07 | Phage binding ELISA, Anti-CD28 Fab signal [2]: 1.81

YCDGHLGVYMAKCL [Phage-822 (Peptide-87 library peptide, SEQ ID NO: 1138)]
Phage binding ELISA, Anti-CD28 Fab signal in the presence of CD28 [1]: 0.07 | Phage binding ELISA, Anti-CD28 Fab signal [2]: 1.79

YCEGHHPQYMAKCL [Phage-828 (Peptide-87 library sequence, SEQ ID NO: 1144)]
Phage binding ELISA, Anti-CD28 Fab signal in the presence of CD28 [3]: 0.09 | Phage binding ELISA, Anti-CD28 Fab signal [4]: 1.78

YCEGHLPIYMSKCL [Phage-838 (Peptide-87 library sequence, SEQ ID NO: 1154)]
Phage binding ELISA, Anti-CD28 Fab signal in the presence of CD28 [3]: 0.09 | Phage binding ELISA, Anti-CD28 Fab signal [4]: 1.76

YCDGHSAEYITKCL [Phage-830 (Peptide-87 library sequence, SEQ ID NO: 1146)]
Phage binding ELISA, Anti-CD28 Fab signal in the presence of CD28 [3]: 0.06 | Phage binding ELISA, Anti-CD28 Fab signal [4]: 1.77

YCDGHLDEYMEKCL [Phage-836 (Peptide-87 library sequence, SEQ ID NO: 1152)]
Phage binding ELISA, Anti-CD28 Fab signal in the presence of CD28 [3]: 0.08 | Phage binding ELISA, Anti-CD28 Fab signal [4]: 1.76

YCDGHKAEYMEKCL [Phage-816 (Peptide-87 library peptide, SEQ ID NO: 1132)]
Phage binding ELISA, Anti-CD28 Fab signal in the presence of CD28 [1]: 0.09 | Phage binding ELISA, Anti-CD28 Fab signal [2]: 1.81

B5: Phage-810 (peptide)
peptide: YCDGHTEEYMDKCL
modifications: cysteine pairing not given here; also: displayed on phage by fusion to pIII, pIII and linker sequence not given here
notes: as for B1
Anti-CD28 Fab signal in the presence of CD28 [5]: 0.09 | Anti-CD28 Fab (SEQ ID NOs: 696, 697) signal [6]: 1.82

YCAGHAEQYMAKCL [Phage-820 (Peptide-87 library peptide, SEQ ID NO: 1136)]
Phage binding ELISA, Anti-CD28 Fab signal in the presence of CD28 [1]: 0.08 | Phage binding ELISA, Anti-CD28 Fab signal [2]: 1.8

B6: Phage-805 (peptide)
peptide: YCEGHSPMYMQKCM
modifications: cysteine pairing not given here; also: displayed on phage by fusion to pIII, pIII and linker sequence not given here
notes: as for B1
Anti-CD28 Fab signal in the presence of CD28 [5]: 0.06 | Anti-CD28 Fab (SEQ ID NOs: 696, 697) signal [6]: 1.83

YCDGLASEYMSKCL [Phage-832 (Peptide-87 library sequence, SEQ ID NO: 1148)]
Phage binding ELISA, Anti-CD28 Fab signal in the presence of CD28 [3]: 0.05 | Phage binding ELISA, Anti-CD28 Fab signal [4]: 1.77

YCDGHSPEYIAKCL [Phage-824 (Peptide-87 library peptide, SEQ ID NO: 1140)]
Phage binding ELISA, Anti-CD28 Fab signal in the presence of CD28 [1]: 0.23 | Phage binding ELISA, Anti-CD28 Fab signal [2]: 1.79

YCAGHLPEYMLKCL [Phage-837 (Peptide-87 library sequence, SEQ ID NO: 1153)]
Phage binding ELISA, Anti-CD28 Fab signal in the presence of CD28 [3]: 0.09 | Phage binding ELISA, Anti-CD28 Fab signal [4]: 1.76

YCEGHSPQYVQKCL [Phage-834 (Peptide-87 library sequence, SEQ ID NO: 1150)]
Phage binding ELISA, Anti-CD28 Fab signal in the presence of CD28 [3]: 0.06 | Phage binding ELISA, Anti-CD28 Fab signal [4]: 1.77

B7: Phage-809 (peptide)
peptide: YCDGHAREYMTKCL
modifications: cysteine pairing not given here; also: displayed on phage by fusion to pIII, pIII and linker sequence not given here
notes: as for B1
Anti-CD28 Fab signal in the presence of CD28 [5]: 0.06 | Anti-CD28 Fab (SEQ ID NOs: 696, 697) signal [6]: 1.82

YCEGHLDEYMWKCL [Phage-831 (Peptide-87 library sequence, SEQ ID NO: 1147)]
Phage binding ELISA, Anti-CD28 Fab signal in the presence of CD28 [3]: 0.06 | Phage binding ELISA, Anti-CD28 Fab signal [4]: 1.77

B8: Phage-807 (peptide)
peptide: YCDGHLPLYMHKCL
modifications: cysteine pairing not given here; also: displayed on phage by fusion to pIII, pIII and linker sequence not given here
notes: as for B1
Anti-CD28 Fab signal in the presence of CD28 [5]: 0.07 | Anti-CD28 Fab (SEQ ID NOs: 696, 697) signal [6]: 1.82

B9: Phage-808 (peptide)
peptide: YCEGHAPQYLNKCL
modifications: cysteine pairing not given here; also: displayed on phage by fusion to pIII, pIII and linker sequence not given here
notes: as for B1
Anti-CD28 Fab signal in the presence of CD28 [5]: 0.08 | Anti-CD28 Fab (SEQ ID NOs: 696, 697) signal [6]: 1.82

B10: Phage-806 (peptide)
peptide: YCDGHSAEYMEKCI
modifications: cysteine pairing not given here; also: displayed on phage by fusion to pIII, pIII and linker sequence not given here
notes: as for B1
Anti-CD28 Fab signal in the presence of CD28 [5]: 0.07 | Anti-CD28 Fab (SEQ ID NOs: 696, 697) signal [6]: 1.83

YCAGHLPMYMAKCL [Phage-817 (Peptide-87 library peptide, SEQ ID NO: 1133)]
Phage binding ELISA, Anti-CD28 Fab signal in the presence of CD28 [1]: 0.08 | Phage binding ELISA, Anti-CD28 Fab signal [2]: 1.8
